Measured values published in doi:10.1101/2023.12.15.571702.

Target: piperazate synthase PipS, C-terminal His6-tagged (holo-PipS) (Streptomyces griseus subsp. griseus NRRL F-5144)
Assay: crystal structure

Substance “piperazate synthase PipS, C-terminal His6-tagged (holo-PipS) (enzyme)” has a stoichiometry N of 2.
